In patent US20230212549A1, “COMPOUNDS COMPRISING A […] LIGAND AND USE THEREOF” (priority 2021, published 2023):
Bridge positions count the residues as written; N and C are the ends.

T1: Caspase-8, Q14790
T1 chain: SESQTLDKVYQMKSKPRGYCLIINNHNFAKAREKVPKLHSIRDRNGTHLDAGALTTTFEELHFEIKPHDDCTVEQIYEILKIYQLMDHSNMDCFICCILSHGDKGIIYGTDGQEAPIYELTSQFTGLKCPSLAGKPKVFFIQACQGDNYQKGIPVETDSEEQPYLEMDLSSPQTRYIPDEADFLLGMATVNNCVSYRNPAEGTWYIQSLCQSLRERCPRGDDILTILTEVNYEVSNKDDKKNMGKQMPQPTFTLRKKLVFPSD

T2: Caspase-9, P55211
T2 chain: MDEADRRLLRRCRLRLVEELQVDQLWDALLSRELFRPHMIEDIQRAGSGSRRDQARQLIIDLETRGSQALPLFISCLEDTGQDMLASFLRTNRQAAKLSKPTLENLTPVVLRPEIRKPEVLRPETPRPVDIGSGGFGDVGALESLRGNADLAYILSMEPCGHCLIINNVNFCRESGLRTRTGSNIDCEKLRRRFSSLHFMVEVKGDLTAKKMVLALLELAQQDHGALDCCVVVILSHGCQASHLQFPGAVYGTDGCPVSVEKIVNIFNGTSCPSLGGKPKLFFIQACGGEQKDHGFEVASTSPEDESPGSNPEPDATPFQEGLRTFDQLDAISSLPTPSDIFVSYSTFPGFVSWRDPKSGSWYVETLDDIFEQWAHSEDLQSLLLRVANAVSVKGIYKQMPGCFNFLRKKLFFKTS

T3: Deubiquitinase OTUD6B, Q8N6M0
T3 chain: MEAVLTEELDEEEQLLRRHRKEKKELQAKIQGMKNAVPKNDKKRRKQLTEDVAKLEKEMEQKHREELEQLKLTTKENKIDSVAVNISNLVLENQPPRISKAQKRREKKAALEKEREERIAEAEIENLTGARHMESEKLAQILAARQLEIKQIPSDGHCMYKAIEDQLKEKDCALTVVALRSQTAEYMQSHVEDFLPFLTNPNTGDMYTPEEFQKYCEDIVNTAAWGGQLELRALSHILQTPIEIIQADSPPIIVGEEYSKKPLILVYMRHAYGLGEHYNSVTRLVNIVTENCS

T4: Matrix metalloprotease 2, P08253
T4 chain: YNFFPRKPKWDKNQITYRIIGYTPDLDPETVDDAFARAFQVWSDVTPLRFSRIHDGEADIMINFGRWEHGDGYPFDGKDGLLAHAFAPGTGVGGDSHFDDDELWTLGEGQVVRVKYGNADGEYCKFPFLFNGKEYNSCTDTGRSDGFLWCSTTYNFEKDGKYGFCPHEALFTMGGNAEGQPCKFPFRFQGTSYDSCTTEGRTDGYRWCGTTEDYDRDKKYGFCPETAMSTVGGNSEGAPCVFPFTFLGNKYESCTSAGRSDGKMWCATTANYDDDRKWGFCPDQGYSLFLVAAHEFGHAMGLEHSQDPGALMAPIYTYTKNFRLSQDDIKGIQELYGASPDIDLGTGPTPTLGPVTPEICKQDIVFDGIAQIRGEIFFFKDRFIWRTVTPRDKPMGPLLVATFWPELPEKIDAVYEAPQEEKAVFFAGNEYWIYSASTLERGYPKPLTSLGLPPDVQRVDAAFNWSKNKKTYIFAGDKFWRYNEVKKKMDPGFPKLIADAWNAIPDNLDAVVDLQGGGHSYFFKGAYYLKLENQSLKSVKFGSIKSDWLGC

T5: PDE4D2 (h) (human), Q08499
T5 chain: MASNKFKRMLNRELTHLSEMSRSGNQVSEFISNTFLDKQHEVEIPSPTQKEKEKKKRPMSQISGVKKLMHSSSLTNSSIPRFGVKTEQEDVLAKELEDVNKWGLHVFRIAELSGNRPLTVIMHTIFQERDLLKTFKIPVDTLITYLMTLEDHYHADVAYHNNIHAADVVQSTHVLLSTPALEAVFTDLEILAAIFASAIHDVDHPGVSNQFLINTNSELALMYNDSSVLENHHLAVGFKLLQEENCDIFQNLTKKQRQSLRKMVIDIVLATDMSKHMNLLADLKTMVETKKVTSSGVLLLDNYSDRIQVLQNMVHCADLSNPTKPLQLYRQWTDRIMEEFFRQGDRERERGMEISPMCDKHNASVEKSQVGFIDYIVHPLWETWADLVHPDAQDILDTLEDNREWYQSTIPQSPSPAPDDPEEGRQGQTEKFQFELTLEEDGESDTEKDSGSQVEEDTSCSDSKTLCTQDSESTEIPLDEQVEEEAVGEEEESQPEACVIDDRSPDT


Legend:
Assay in all cases: cell-based or functional assay
[1] = biological target: Activated Protein C, P04070
Beta secretase, P56817 = biological target: Beta secretase, P56817
Sequence of Beta secretase, P56817 (P56817 22-457 limits assumed): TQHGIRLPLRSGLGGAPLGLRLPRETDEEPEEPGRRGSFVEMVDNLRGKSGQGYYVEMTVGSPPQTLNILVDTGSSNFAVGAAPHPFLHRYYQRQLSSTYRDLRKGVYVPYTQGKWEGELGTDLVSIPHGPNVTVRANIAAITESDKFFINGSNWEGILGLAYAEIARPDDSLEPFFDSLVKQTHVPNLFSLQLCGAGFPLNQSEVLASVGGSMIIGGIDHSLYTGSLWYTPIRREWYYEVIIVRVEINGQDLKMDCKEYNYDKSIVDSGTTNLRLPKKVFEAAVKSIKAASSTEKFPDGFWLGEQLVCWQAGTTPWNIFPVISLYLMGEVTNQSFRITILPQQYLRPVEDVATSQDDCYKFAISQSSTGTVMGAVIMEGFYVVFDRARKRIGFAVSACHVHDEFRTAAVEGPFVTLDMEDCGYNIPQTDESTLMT

Caspase-8, Q14790 = biological target: T1, Caspase-8, Q14790
Caspase-9, P55211 = biological target: T2, Caspase-9, P55211
Cathepsin S, P25774 = biological target: Cathepsin S, P25774
Sequence of Cathepsin S, P25774 (P25774 115-331 limits assumed): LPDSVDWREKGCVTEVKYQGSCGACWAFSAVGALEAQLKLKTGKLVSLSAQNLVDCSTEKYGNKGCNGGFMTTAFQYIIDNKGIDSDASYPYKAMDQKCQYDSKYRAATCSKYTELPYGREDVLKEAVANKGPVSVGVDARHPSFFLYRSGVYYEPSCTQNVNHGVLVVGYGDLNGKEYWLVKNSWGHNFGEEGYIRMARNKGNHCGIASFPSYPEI

Cathepsin V, O60911 = biological target: Cathepsin V, O60911
Sequence of Cathepsin V, O60911 (O60911 114-334 limits assumed): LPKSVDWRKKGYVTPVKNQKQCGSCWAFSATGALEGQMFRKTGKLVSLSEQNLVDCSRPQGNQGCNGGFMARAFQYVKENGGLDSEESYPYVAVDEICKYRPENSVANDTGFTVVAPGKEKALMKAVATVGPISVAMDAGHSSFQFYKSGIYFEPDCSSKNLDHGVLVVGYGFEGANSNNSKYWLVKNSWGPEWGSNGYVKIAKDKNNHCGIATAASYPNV

DPP8, Q6V1X1 = biological target: DPP8, Q6V1X1
Sequence of DPP8, Q6V1X1 (Q6V1X1 whole entry): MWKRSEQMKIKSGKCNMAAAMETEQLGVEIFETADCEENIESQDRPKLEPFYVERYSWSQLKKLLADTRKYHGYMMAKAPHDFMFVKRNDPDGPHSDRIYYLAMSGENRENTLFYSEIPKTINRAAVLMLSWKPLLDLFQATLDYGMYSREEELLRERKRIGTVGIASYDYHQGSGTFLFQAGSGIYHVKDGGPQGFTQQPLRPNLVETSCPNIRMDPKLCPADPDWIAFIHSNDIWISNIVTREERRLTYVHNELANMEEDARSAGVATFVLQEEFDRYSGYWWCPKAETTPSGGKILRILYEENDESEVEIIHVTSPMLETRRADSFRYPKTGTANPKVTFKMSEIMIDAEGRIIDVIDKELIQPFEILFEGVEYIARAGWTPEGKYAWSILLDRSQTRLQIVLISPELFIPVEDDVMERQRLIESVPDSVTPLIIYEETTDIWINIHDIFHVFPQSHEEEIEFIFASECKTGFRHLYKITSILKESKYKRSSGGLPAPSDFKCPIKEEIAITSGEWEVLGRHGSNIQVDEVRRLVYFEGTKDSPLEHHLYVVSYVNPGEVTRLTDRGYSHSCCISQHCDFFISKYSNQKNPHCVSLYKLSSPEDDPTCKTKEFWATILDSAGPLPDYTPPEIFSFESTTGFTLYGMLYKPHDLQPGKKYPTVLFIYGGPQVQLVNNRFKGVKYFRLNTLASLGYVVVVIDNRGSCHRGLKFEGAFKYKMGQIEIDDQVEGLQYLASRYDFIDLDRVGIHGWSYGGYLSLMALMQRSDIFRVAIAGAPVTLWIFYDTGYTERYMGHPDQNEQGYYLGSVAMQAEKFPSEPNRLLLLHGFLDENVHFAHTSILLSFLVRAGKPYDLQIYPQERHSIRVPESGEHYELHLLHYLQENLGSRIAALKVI

[2] = biological target: T3, Deubiquitinase OTUD6B, Q8N6M0
[3] = biological target: FAP (protease specificity screen, BPS Biosciences), Q12884
Sequence of FAP (protease specificity screen, BPS Biosciences), Q12884 (Q12884 27-760 limits assumed): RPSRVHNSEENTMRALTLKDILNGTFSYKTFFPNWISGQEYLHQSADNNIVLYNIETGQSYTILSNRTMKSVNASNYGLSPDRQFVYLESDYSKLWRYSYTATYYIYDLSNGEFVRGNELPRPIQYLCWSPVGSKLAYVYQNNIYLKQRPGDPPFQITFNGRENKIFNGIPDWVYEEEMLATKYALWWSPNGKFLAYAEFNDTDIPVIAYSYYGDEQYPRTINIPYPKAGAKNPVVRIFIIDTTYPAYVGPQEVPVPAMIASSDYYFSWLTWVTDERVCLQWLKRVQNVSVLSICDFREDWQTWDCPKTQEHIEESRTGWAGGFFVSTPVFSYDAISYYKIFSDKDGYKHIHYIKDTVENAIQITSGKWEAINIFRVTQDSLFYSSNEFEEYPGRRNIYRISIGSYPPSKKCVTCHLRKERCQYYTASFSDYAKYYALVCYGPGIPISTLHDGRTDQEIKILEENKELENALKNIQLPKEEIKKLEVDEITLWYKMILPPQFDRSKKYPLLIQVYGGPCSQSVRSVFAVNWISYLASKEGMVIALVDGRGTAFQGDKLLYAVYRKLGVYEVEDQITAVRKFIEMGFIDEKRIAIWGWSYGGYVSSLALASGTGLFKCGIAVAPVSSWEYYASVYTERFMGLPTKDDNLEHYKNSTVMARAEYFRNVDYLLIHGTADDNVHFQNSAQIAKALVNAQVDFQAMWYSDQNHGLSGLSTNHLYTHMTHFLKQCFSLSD

[4] = biological target: T4, Matrix metalloprotease 2, P08253
[5] = biological target: PDE3A (h) (human), Q14432
Sequence of PDE3A (h) (human), Q14432 (Q14432 669-1141 limits assumed): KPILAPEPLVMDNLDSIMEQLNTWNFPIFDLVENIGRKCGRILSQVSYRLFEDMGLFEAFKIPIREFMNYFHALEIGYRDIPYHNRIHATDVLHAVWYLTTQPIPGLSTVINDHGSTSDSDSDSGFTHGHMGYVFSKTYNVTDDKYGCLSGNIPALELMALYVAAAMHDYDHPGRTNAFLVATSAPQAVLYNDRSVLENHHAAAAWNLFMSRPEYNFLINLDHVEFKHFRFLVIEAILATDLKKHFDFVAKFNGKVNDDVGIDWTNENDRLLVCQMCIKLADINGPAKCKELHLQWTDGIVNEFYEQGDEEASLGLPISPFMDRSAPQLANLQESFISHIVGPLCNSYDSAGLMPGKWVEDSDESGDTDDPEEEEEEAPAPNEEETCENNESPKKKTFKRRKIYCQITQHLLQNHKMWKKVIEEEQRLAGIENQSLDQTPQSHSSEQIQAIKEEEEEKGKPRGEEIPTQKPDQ

[6] = biological target: T5, PDE4D2 (h) (human), Q08499
[7] = biological target: Ubiquitin carboxyl-terminal hydrolase 10, Q14694
Sequence of Ubiquitin carboxyl-terminal hydrolase 10, Q14694 (Q14694 whole entry): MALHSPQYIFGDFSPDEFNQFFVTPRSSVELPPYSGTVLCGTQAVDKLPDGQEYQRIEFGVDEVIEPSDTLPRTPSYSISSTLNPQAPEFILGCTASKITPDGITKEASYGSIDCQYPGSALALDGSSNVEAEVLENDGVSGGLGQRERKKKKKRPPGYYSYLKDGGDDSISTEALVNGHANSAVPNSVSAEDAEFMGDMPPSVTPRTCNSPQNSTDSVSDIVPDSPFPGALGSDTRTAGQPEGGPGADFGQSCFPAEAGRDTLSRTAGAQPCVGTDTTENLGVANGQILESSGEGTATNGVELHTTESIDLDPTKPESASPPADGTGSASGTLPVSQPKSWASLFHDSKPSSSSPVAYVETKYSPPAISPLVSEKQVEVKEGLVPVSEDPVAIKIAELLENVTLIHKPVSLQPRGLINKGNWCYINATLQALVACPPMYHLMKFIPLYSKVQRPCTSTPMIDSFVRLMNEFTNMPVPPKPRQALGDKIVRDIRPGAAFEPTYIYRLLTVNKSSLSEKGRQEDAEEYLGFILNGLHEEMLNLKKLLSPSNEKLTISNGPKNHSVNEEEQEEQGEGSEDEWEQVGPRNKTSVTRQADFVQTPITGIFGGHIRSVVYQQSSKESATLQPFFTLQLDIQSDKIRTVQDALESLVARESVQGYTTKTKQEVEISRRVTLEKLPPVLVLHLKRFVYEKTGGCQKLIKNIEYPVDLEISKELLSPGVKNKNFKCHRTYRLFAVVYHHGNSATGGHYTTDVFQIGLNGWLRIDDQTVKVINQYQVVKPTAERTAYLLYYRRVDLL

Binder	Percentage inhibition (%) at 1 µM [1] [%]	Percentage inhibition (%) at 10 µM [1] [%]	Percentage inhibition (%) at 1 µM (Beta secretase, P56817) [%]	Percentage inhibition (%) at 10 µM (Beta secretase, P56817) [%]	Percentage inhibition (%) at 1 µM (Caspase-8, Q14790) [%]	Percentage inhibition (%) at 10 µM (Caspase-8, Q14790) [%]	Percentage inhibition (%) at 1 µM (Caspase-9, P55211) [%]	Percentage inhibition (%) at 10 µM (Caspase-9, P55211) [%]	Percentage inhibition (%) at 1 µM (Cathepsin S, P25774) [%]	Percentage inhibition (%) at 10 µM (Cathepsin S, P25774) [%]	Percentage inhibition (%) at 1 µM (Cathepsin V, O60911) [%]	Percentage inhibition (%) at 10 µM (Cathepsin V, O60911) [%]	Percentage inhibition (%) at 1 µM (DPP8, Q6V1X1) [%]	Percentage inhibition (%) at 10 µM (DPP8, Q6V1X1) [%]	Percentage inhibition (%) at 1 µM [2] [%]	Percentage inhibition (%) at 10 µM [2] [%]	Percentage inhibition (%) at 1 µM [3] [%]	Percentage inhibition (%) at 10 µM [3] [%]	Percentage inhibition (%) at 1 µM [4] [%]	Percentage inhibition (%) at 10 µM [4] [%]	also measured
Hex-CPPTQFC-OH (bridge 1-7; not fully specified (bridges); printed as Hex-[Cys(tMeBn(DOTA-AET))-Pro-Pro-Thr-Gln-Phe-Cys]-OH) [Hex-[Cys(tMeBn(DOTA-AET))-Pro-Pro-Thr-Gln-Phe-Cys]-OH]	-11	1	1	7	0	-3	-1	-2	-10	-23	-1	-1	1	11	0	0	97	99	-1	-2	% inhibition of control enzyme activity, compound at 10 µM [5]: -37%; % inhibition of control enzyme activity, compound at 10 µM [6]: -4%; Percentage inhibition (%) at 1 µM [7]: 1%; Percentage inhibition (%) at 10 µM [7]: -1%
Hex-CPPTQFCD-NH2 (bridge 1-7; not fully specified (bridges); printed as Hex-[Cys(tMeBn(DOTA-PP))-Pro-Pro-Thr-Gln-Phe-Cys]-Asp-NH2) [Hex-[Cys(tMeBn(DOTA-PP))-Pro-Pro-Thr-Gln-Phe-Cys]-Asp-NH2]	5	8	-8	-5	0	0	5	8	3	18	1	-18	1	5	2	15	98	99	3	3	% inhibition of control enzyme activity, compound at 10 µM [5]: -3%; % inhibition of control enzyme activity, compound at 10 µM [6]: -5%; Percentage inhibition (%) at 1 µM [7]: -2%; Percentage inhibition (%) at 10 µM [7]: 5%
